Experimental data reported in US20090214428A1.

Molecular target: HeV G envelope glycoprotein (on effector cells expressing HeV F and G, or on infectious HeV) (Hendra virus) (UniProt O89343)
Experiment: cell-based or functional assay

Sequence of HeV G envelope glycoprotein (on effector cells expressing HeV F and G, or on infectious HeV) (Hendra virus) (O89343 whole entry): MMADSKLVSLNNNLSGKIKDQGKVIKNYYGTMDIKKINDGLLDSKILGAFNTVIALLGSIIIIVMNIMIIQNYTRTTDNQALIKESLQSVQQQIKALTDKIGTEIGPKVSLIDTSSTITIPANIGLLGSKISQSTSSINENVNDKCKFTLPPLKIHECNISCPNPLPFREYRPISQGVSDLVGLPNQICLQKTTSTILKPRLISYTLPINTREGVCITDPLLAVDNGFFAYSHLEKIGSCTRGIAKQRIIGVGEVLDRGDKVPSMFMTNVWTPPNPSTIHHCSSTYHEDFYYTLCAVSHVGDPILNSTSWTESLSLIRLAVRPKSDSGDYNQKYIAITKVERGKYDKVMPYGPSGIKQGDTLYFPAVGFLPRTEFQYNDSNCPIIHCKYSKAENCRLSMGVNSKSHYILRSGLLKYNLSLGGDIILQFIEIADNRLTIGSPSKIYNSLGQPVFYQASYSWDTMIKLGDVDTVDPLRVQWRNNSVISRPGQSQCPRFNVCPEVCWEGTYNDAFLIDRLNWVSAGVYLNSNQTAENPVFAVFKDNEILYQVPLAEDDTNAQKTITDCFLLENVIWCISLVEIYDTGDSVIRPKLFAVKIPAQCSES

## Fab X5
  syncytia per complete photograph view, control antibody (17 without antibody) (syncytia per view): 20
